Experimental data from the nanobody polyreactivity screen of Harvey et al. (2022).

Test: yeast display, Sf9 membrane polyspecificity reagent, FACS + sequencing; frameworks hold sequencing errors
How it was run: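 Nanobodies came from a synthetic yeast display library in Saccharomyces cerevisiae BJ5465, induced with galactose for 36–48 hours and stained for 1 hour at 4 °C with 10% biotinylated, detergent-solubilized Sf9 membrane reagent. Cells were enriched on streptavidin microbeads and then FACS-sorted, with low and high (top ~1%) gates set on anti-HA fluorescence for expression and streptavidin fluorescence for reagent binding. Each polyreactivity label reflects the gate a clone came from. Genes were amplified by colony PCR, sequenced by MiSeq 2 × 250 and filtered by CDR length.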

Sequence	polyreactivity (PSR sort gate)
QVQLVESGGGLVQAGGSLRLSCAASGFTFERNAMGWYRQAPGKERELVATISQSGTNTYYADSVKGRFTISRDNAKNTVYLQMNSLKPEDTAVYYCNARYLFYRYDYWGQGTQVTVSS	low polyreactivity
QVQLVESGGGLVQAGGSLRLSCAASGSSFTPNVMGWYRQAPGKERELVAAISQSGGSTFYADSVKGRFTISRDNAKNTVYLQMNSLKPEDTAVYYCATEYYGPVYDLDYDYWGQGTQVTVSS	low polyreactivity
HVQLVESGGGLVQAGGSLRLSCAASGSTFTVNAMGWYRQAPGKERELVAAISASGGRTYYADSVKGRFTISRDNAKNTVYLQMNSLKPEDTAVYYCAARFRTWGNREAGYYWGQGTQVTVSS	high polyreactivity
QVQLVESGGGLVQAGGSLRLSCAASGIIFGTNAMGWYRQAPGKERELVASITSDGSTYYADSVKGRFTISRDNAKNTVYLQMNSLKPEDTAVYYCAADHYWADGVYLYDTYEYGYWGQGTQVTVSS	low polyreactivity
QVQLVESGGGLVQAGGSLRLSCAASGRIFRYNAMGWYRQAPGKERELVAAITWDGGSTYYADSVKGRFTISRDNAKNTVYLQMNSLKPEDTAVYYCNAVTRSYYSYYYWGQGTQVTVSS	high polyreactivity
QVQLVESGGGLVQAGGSLRLSCASSGFTFSVYAMGWYREAPGKERELVAAITWRGGSTYYADSVKGRFTISRDNAKNTVYLQMNSLKPEDSAVYYCAVLYPKYGKRYGYWGQGTQVTVSS	high polyreactivity
QVQLVESGGGLVQAGGSLRLSCAASGSTLAVYSMGWYRQAPGKEREFVAAISWSGVSTYYADSVKGRFTISRDNAKNTVYLQMNSLKPEDTAVYYCAAKRVRALYGGSEGGYWGQGTQVTVSS	low polyreactivity
QVQLVESGGGLVLAGGSLRLSCAASGSIFQPNAMGWYRQAPGKERELVASIRGRGGDTYYADSVKGRFTISRDNAKNSVYLQMNSLKPEDTAVDYCAADYRWGQGTQVTVSS	low polyreactivity
QVQLVESGGGLLQAGGSLRLSCAASGRIFGQYAMGWYRQAPGKEREFVAGISTTGGSTYYADSVKGRFTISRDNAKNTVYLQMNSLKPEDTAVYYCAVRINWSRWYHYYTYNYWGQGTQVTGSS	high polyreactivity
QVQLVESGGGLVQAGGSLRLSCAASGIIFEGYAMGWYRQATGKERELVAAITGTADGTYYADSVKGRFTISRDNAKNTVYLQMNSLKPEDTAVYYCAKGSVVYLLRGVKGHSMDYWGQGTQVTVSS	low polyreactivity
QVQLVESGGGLVQAGGSLRLSCAASGRIFYPYAMGWYRQAPGKERELVAAIRISGGSTYYADSVKGRFTISRDNAKNTVYLQMISLNPEDTAVYYCNASARLQPAYSWFYYWGQGTQVTVSS	high polyreactivity
QVQLVESGGGLVQAGGSLRLSCAASGSTSSVYDMGWYRQEPGKERELVAGIDYSAGSTYYADSVKGRFTISRDNAKNTVYLQMNSLKPEDTAVYYCDADAAYYSGYDYWGQGTQVTVSS	low polyreactivity
QVQLVESGGGLVQAGGSLRLSCAASGRIFARYAMGWYRQAPWKERELVADITTGGSTDYADSVKGRFTISRDNAKNTVYLQMNSLKPEDTAVYYCAKDHHPPGKGQSVSLGYDYWGQGTQVTVSS	low polyreactivity
QVQLVESGGGLVQAGGRLRLSCAASGRTLWIYAMGWYRQAPGKERELVASITTRGGSTYYADSVKGRFTISRDNAKNTVYLQMKSLKPEDTAVYYCAAEGYTYYTYDPHDYWGQGTQVTVSS	high polyreactivity
QVHLVESGGGLVQAGGSLRLTCAASGFTFQGYAMGRYRQAPGKERELVAAISIGGVRTYYADSVKGRFTISRDNAKNTVYLQMNSLKPEDTAVYYCAKDGSKLSSYNYWGQGTQVTVSS	high polyreactivity
QVQLVESRGGLVQAGGSLRLSCAASGFIFWYYAMGWYRQAPGKERALVAAINWSGTSTNYADSVKGRFTISRDNAKNTVYLQMNSLIPEDTAVYYCNTRIWSSSYDVTYDYWGQGTQVTVSS	low polyreactivity
QVQLVESGGGLVQAGGSLRLSCAASGSTIDGYAKGWYTQAPGKEREFVAAISFSSASTYYADSVKGRFTISSDNAKNTFYLQMNSLIPEDTAVYDCAASYKGLWHGDYDYWGQGTQVTVSS	low polyreactivity
QVQLVESGGGLDQAGGSLRLSCAASGFTSYLYTMGWYRQAPGKERELVAAISNSGGNTYYADSLKGRFTISRDIAKKTVYLQMNSLKPEDTAVYYCAAVRRISRYDYWGQGTQVTVSS	high polyreactivity
QVQLVESGGGLVQAGGSLRLSCAASGSTFYSNAMGWYRQAPGKERELVAAISYSGGRTYYADSVKGRFTISRDNAKNTVFLQMNSLKPEDTAVYYCNKAYRRYIWHMDYWGQGTQVTVSS	high polyreactivity
QVQLVESGGGLVQAGGSLRLSCAASGRTFYYYAMGWYRQAPGKEREFVAAIRFSGGNTYYADSVKGRFTISRDNAKNTVYLQMNSLKPEDTAVYYCAARRLLYKYWTGGPYDYWGQGTQVTVSS	high polyreactivity
QVQLVESGGGLVQAGGSLRLSCAASGRIQYNAMGWYSQAPGKEREFGAAISWSGGTTYYADSVKGRFTISRDTAKNTVYLQMNSLKPEDTAVYYCATPYTHWGQGTQVTVSS	high polyreactivity
QVQLVESGGGLVQAGGSLRLSCASSGFSFLSYTMGWYRQAPGKERELVAAITSGGSTYYADSVKGRFTISRDNAKNTVYLQMNSLKPEDTAVYYCAVTYRWHTFIYDYWGQGTQVTVSS	low polyreactivity

Sequence	polyreactivity (PSR sort gate)
QVQLVESGGGLVQAGGSLRLSCAASGFTFHPNSMGWYRQAPGKERELVASISSRGGSTYYADSVKGRFTISRDNAKNTVYLQMNSQKPEYTAVYYCNVRGTQYYGHIGFYYWGQGTQVTVSS	low polyreactivity
QVQLVESGGGLVQAGGSLRLSCAASGIIFIGYAMGWYSQAPGKERELVAAISTRGSTTNYADSVKGRFTISRDNAKNTVYLQMNSLKPEDTAVYYCAARKYPSYRYPTGDYWGQGTQVTVSS	high polyreactivity
QVQLVVSGGGLVQAGGSLRLSCAASGRIFRSYAKGWYRQAPGKERELVAAINYGGTSTYYADSVKGRFTISRDNAKNTVYLQMNSLKPEDTAVYYCAARRPTSPRRYESWGQGTQVTVSS	high polyreactivity
QVQLVESGGGLVQAGGSHRLSCAASGSIFYDNAMGWYRQAPGKERELVAVITVSGDSTYYADSVKGRFTISRDNAKNTVYLQMNSLKPEDTAVYYCNTDAISGSHFWRYITFGYLDDYWGQGTQVTVSS	low polyreactivity
QVQLVESGGGLVQAGGSLRLSCAASGRIFWRNAMVWYRQAPGKERELVAAISGSGGSTSYADSVKGRFTISRDNAKNTVYLQMNSLKPEDTAVYYCAAKYYYNWHRQGYDYWGQGTQVTVSS	high polyreactivity
QVQLVESGGGLVQAGGSLRLSCAASGSTFRKYAMGWYRQAPGKERELVATISRGTSTYYADSVKGRFTISRDNAKNTVYLQMNSLKPEDTAVYYCNAGYYNKRDGGYTYNYWGQGTQVTVSS	low polyreactivity
QVQRVESGGGLVQAGGSLGLSCAATGSTFTVYAMGWYRQATGTERELVASITFTGGSTYYADSVKGRFTISRDNAKNTVYLQMISLKPEVTEVYYCAAYGWRVHDRWFFERDYWGQGTQVTVSS	high polyreactivity
QVQLVESGGGLVQAGGSLRLSCAAYGSTFSWYTMGWYRQAPGKERELVAAISWSGGRTYYADSVKGRFTISRDNAKNTVYLQMNSLKPEDTAVYYCAAYDYRYSLGDYQFYYWGQGTQVTVSS	low polyreactivity
QVQLVESGGGLVQAGGSLRLSCAASGGILDTYAMGWYRQAPGKERELVAAITSGGNTNYADSVKGRFTISRDNAKNTVYLQMNSLKPEDTAVYYCNVVTWYYVFRPWEYDYWGQGSQVTVSS	low polyreactivity
QVQLVESGGGLVQAGGSLRLSCAASGSIFVHYAMGWYRQAPGKERELVASISTSGGRTRYADSVKGRFTISRDNAKNTVYLQMNSLKPEDTAVYYCAALRWGRRYDYWGQGTQVTVSS	high polyreactivity
QVQLVESGGGLVQAGGSLRLSCAASGRILGYNARGWYRQAPGKEREFVATISKRTGSTRYADSVKGRFTISRDNAKNTVYLQMNSLKPEDTAVYYCAAYYGRFYGKYDYWGQGTQVTVSS	high polyreactivity
QVQLVESGGGLVQAGGSLRLSCAASGRIFVGYALGWYRQAPGKERELVAAINRSGSSTYYADSVKGRFTISRDNAKNTVYLQMNSLKPEDTAVYYCNARSGNRYGPRYDYWGQGTQVTVSS	high polyreactivity
QVQLVESGGGLVQAGGSLRLSCAASGFIFAEYAMGWYRQAPGKEREFVASITYSGGRTYYADSVKGRFTISRDNAKNTVYLQMNSLKPEDTAVYYCATARYRYHYYSWGQGTQVTVSS	high polyreactivity
QVQLVESGGGLVQAGGSLRLSCAASGRTFYGYAMGWYRQAPGKERELVAGITSRVGSTYYADSVKGRFTISRDNAKNNVYLQMNSLKPEDTAVYYCAADRYAVRSYHYDYWGQGTQVTVSS	low polyreactivity
QVQLVESGGGLVQAGGSLRLSCAASGCIFWKDAMGWYRQAPGKERELVAAITSGGGTYYADSVKGLFTISRDNAKNTVYLQMNSLKPEDTAVYYCAARSLSVARRRPYYYWGQGTQVTVSS	high polyreactivity
QVQLVESGGGLVQAGGSLRLSCAASGRTLDYNAMGLYRQAPGKERELVAAISWTGDSTYYADSVKGRFTISRDNAKNTVNLQMNSLKPEDTAVYYCAASYSRFVDWIGDPGYDYWGQGTQVTVSS	low polyreactivity
QVQLVESGGGLVQAGGSLRLSCAASGSTFYYYGMGWYRQAPGKERELVASISWGGGSTYYADSVKGRFTISRDNAKNTVYLQMNILKPEDTAVYYCATRGSYLGGLYDYWGQGTQVTVSS	high polyreactivity
QVQLVESRGGLVQAGGSLRLSCAASGLTFRYYAMGWYRQAPGKERELVAAITASVGSTYYADSVKGRFTISRDNAKNTVYLQMNSLKPEDTAVYYCAADSEQDNLRYYRWVWYYYWGQGTQVTVSS	low polyreactivity
QVQLVESGGGLVQAGGSHRLSCAASGRTFRPYAMGWYRQAPGKERELVAAITGGTRKYYADSVKGRFTISRDNAKNSVYLQMNSLKPEVTAVYSCAKGDFFSKHDYRGQGTQVTVSS	low polyreactivity
QVQLVESGGGLVQAGGSLRLSCAASGRIFRSNGMGWCRQAPGKERELVAVITPRSGTTSYADSVKGRFTISRDNAKNTVYLQRNSLKPEDTAVYYCAADSDWYPSPYDYWGQGTQVTVSS	high polyreactivity
QVQLVESGGGLVQAGGSLRLSCAASGFTFIYNAMGWYRQAPGKERELVAAISRGASTNYADSVKGRFTISRDNAKNTVYLQMNSLKPEDTAVYYCAKRTTRLAPYDYWGQGTQVTVSS	high polyreactivity
